According to publication PMC8031885, “Targeted mutagenesis on PDGFRα-Fc identifies amino acid modifications that allow efficient inhibition of HCMV infection while abolishing PDGF sequestration” (PLoS Pathogens, 2021):

How the values were obtained:
Details in all cases: both partners purified
PDGFRα-Fc I139E = target: T1, PDGFRα-Fc I139E (UniProt P16234-1 24-528, I139E); test: MST; Monolith NT.115 Pico; read-out: dose-dependent photo-bleaching (fluorescence quenching) rate in a prolonged initial fluorescence segment (5 s) before the thermophoresis segment; 0.1 nmol/l NT-647-labelled PDGF-BB constant, PDGFRα-Fc variants in 16 concentrations over 5 log steps; 60% excitation power; one site binding model; IgG elution buffer neutralised with 0.1 M Tris pH 8.0, 0.025% Tween-20, 50 mM NaCl; 25°C
T1 construct: PDGFRα (CD140a), extracellular domain, aa 24 to 528, NCBI XP_005265800; Point mutant of m1; source: HEK 293 F suspension cells, transiently transfected (PEI), purified from the medium with Protein A beads

PDGFRα-Fc Y206S = target: T2, PDGFRα-Fc Y206S (UniProt P16234-1 24-528, Y206S); test: as above
T2 construct: PDGFRα (CD140a), extracellular domain, aa 24 to 528, NCBI XP_005265800; Point mutant of m1; source: HEK 293 F suspension cells, transiently transfected (PEI), purified from the medium with Protein A beads

PDGFRα-Fc wild type = target: T3, PDGFRα-Fc wild type (UniProt P16234-1 24-528); test: as above
T3 construct: PDGFRα (CD140a), extracellular domain, aa 24 to 528, NCBI XP_005265800; Vector pFuse-PDGFRα-ECD-hIgG1-Fc2; also called soluble PDGFRα-Fc; WT; source: HEK 293 F suspension cells, transiently transfected (PEI), purified from the medium with Protein A beads

PDGFRα-Fc I139A + Y206A = target: T4, PDGFRα-Fc I139A + Y206A (UniProt P16234-1 24-528, I139A | Y206A); test: as above
T4 construct: PDGFRα (CD140a), extracellular domain, aa 24 to 528, NCBI XP_005265800; Double mutant of m1; also called double alanine-exchange mutant; source: HEK 293 F suspension cells, transiently transfected (PEI), purified from the medium with Protein A beads

PDGFRα-Fc I139E + Y206S = target: T5, PDGFRα-Fc I139E + Y206S (UniProt P16234-1 24-528, I139E | Y206S); test: MST; Monolith NT.115 Pico; read-out: dose-dependent changes of MST traces (F1 over F0; MST-on time 4-5 s in Fig 7, 1.5-2.5 s in Fig 10A); 0.1 nmol/l NT-647-labelled PDGF-BB constant, PDGFRα-Fc titrated; 60% excitation power; 0.025% Tween-20, 50 mM NaCl; 25°C
T5 construct: PDGFRα (CD140a), extracellular domain, aa 24 to 528, NCBI XP_005265800; Double mutant of m1; also called I139E + Y206S double mutant; PDGFRα-Fc double mutant; source: HEK 293 F suspension cells, transiently transfected (PEI), purified from the medium with Protein A beads

PDGFRα-Fc V242K = target: T6, PDGFRα-Fc V242K (UniProt P16234-1 24-528, V242K); test: as above
T6 construct: PDGFRα (CD140a), extracellular domain, aa 24 to 528, NCBI XP_005265800; Point mutant of m1; also called V242K single mutant; source: HEK 293 F suspension cells, transiently transfected (PEI), purified from the medium with Protein A beads

B1: PDGF-BB (ligand, UniProt P01127 82-190, looked up)
chain: SLGSLTIAEPAMIAECKTRTEVFEISRRLIDRTNANFLVWPPCVEVQRCSGCCNNRNVQCRPTQVQLRPVQVRKIEIVRKKPIFKKATVTLEDHLACKCETVAAARPVT
modifications: NT-647 dye on amines (amine reactive labelling kit RED-NHS) in the MST experiments; unlabelled in the signalling assays
notes: PDGF-B chain of dimeric PDGF-BB, bought recombinant protein; also called dimeric PDGF-BB; source: bought: R&D # 220-BB
- Kd (PDGFRα-Fc I139E): 4.02 nM
- Kd (PDGFRα-Fc Y206S): 7.32 nM
- Kd (PDGFRα-Fc wild type): 0.14 nM
- Kd (PDGFRα-Fc I139A + Y206A): 4.6 nM
- Kd (PDGFRα-Fc I139E + Y206S): 200 nM
- Kd (PDGFRα-Fc V242K): 92 nM
